# B1: Ribonuclease wild type, P00648 (protein)
# chain: MMKMEGIALKKRLSWISVCLLVLVSAAGMLFSTAAKTETSSHKAHTEAQVINTFDGVADYLQTYHKLPDNYITKSEAQALGWVASKGNLADVAPGKSIGGDIFSNREGKLPGKSGRTWREADINYTSGFRNSDRILYSSDWLIYKTTDHYQTFTKIR
# Details: Bacillus amyloliquefaciens; pH 6.3; 25 °C; Urea; Fluorescence; MES 1.00 M; NaCl 613 mM; reversible: yes; whole UniProt chain shown
protein,measurement,value
B1,denaturant midpoint (higher = more stable),4.58 M
